{
  "source": "patent US20260218128A1",
  "key": {"NKG2D ligands [1]": {"target": "NKG2D ligands", "experiment": "flow cytometry, human primary NK cells after 24 h 1:1 co-culture with HL60 cells, NKG2D-Fc protein 5 µg/mL, anti-human IgG Fc-PE; histogram peak near 10^2; control NK only+PBS: 12.0"}, "NKG2D ligands [2]": {"target": "NKG2D ligands", "experiment": "flow cytometry, human primary NK cells after 24 h 1:1 co-culture with MV4-11 cells, NKG2D-Fc protein 5 µg/mL, anti-human IgG Fc-PE; faint histogram near 10^2; control NK only+PBS: 12.0"}, "NKG2D ligands [3]": {"target": "NKG2D ligands", "experiment": "flow cytometry, human primary NK cells after 24 h 1:1 co-culture with THP-1 cells, NKG2D-Fc protein 5 µg/mL, anti-human IgG Fc-PE; histogram peak near 10^2; control NK only+PBS: 12.0"}, "NKG2D ligands [4]": {"target": "NKG2D ligands", "experiment": "flow cytometry, human primary NK cells after 24 h 1:1 co-culture with NKG2D-UCAR-T cells, NKG2D-Fc protein 5 µg/mL, anti-human IgG Fc-PE; histogram peak near 10^2; control NK only+PBS: 12.0"}, "NKG2D ligands [5]": {"target": "NKG2D ligands", "experiment": "flow cytometry, human primary NK cells after 24 h 1:1 co-culture with KG-1 cells, NKG2D-Fc protein 5 µg/mL, anti-human IgG Fc-PE; histogram peak near 10^2; control NK only+PBS: 12.0"}},
  "data": [
    {"substance": "NKG2D-Fc protein (from UniProt P26718) (Fc fusion)", "values": [
      {"measurement": "PE fluorescence statistic, name not given", "setting": "NKG2D ligands [1]", "result": 107},
      {"measurement": "PE fluorescence statistic, name not given", "setting": "NKG2D ligands [2]", "result": 124},
      {"measurement": "PE fluorescence statistic, name not given", "setting": "NKG2D ligands [3]", "result": 125},
      {"measurement": "PE fluorescence statistic, name not given", "setting": "NKG2D ligands [4]", "result": 95},
      {"measurement": "PE fluorescence statistic, name not given", "setting": "NKG2D ligands [5]", "result": 99.7}
    ]}
  ]
}
